Values of other authors as cited in PMC6959264.

Assays:
[1] = target: Asp74 (UniProt position 74, WARYIDWVITT); details: original (unphotolyzed, dark) state implied
[2] = target: Asp96 (UniProt position 109, PLLLLDLALLV)
[3] = target: Asp85 (UniProt position 98, WARYADWLFTT)
[4] = target: Asp212 (UniProt position 225, LFMVLDVSAKV)

| Substance | pKa [1] | pKa [2] | pKa [3] | pKa [4] |
| --- | --- | --- | --- | --- |
| Rubrobacter xylanophilus rhodopsin (RxR) (Rubrobacter xylanophilus (DSM 9941)) | 1.3 |  |  |  |
| Bacteriorhodopsin (BR) (Halobacterium salinarum) |  | >12.0 | 2.6 | <2.5 |
